In US20150265516A1 (Merck KGaA, published 2015):
One block for each binder: values may come before it. Starred links: 1 amine or outer side, 2 acyl side, 3 side chain; linkers in the order of their positions; H or OH if unused. Non-standard residues stand in square brackets, D forms with d. Primed or numbered codes have the meaning given here. No end group written: not given here. Nhdg = N-hexadecylglycine, CCCCCCCCCCCCCCCCN(CC(=O)[*:2])[*:1]; Aib′ = 3-aminoisobutyric acid (as defined by the filing); Ac6c = NC1(C(=O)O)CCCCC1; NMeA = CN[C@@H](C)C(=O)O; Ac5c = NC1(C(=O)O)CCCC1

Tests used:
[1] = biological target: T1, purified human integrin αvβ3 from term placenta (human, UniProt P06756 31-1048; P05106 27-788); assay: receptor inhibition assay: coated placental αvβ3, competitor ligand biotinylated vitronectin
T1 construct: mature; also called human placental αvβ3; vitronectin receptor avβ3
T1 sequence (P06756 31-1048, form in doubt, chain 1 of 2): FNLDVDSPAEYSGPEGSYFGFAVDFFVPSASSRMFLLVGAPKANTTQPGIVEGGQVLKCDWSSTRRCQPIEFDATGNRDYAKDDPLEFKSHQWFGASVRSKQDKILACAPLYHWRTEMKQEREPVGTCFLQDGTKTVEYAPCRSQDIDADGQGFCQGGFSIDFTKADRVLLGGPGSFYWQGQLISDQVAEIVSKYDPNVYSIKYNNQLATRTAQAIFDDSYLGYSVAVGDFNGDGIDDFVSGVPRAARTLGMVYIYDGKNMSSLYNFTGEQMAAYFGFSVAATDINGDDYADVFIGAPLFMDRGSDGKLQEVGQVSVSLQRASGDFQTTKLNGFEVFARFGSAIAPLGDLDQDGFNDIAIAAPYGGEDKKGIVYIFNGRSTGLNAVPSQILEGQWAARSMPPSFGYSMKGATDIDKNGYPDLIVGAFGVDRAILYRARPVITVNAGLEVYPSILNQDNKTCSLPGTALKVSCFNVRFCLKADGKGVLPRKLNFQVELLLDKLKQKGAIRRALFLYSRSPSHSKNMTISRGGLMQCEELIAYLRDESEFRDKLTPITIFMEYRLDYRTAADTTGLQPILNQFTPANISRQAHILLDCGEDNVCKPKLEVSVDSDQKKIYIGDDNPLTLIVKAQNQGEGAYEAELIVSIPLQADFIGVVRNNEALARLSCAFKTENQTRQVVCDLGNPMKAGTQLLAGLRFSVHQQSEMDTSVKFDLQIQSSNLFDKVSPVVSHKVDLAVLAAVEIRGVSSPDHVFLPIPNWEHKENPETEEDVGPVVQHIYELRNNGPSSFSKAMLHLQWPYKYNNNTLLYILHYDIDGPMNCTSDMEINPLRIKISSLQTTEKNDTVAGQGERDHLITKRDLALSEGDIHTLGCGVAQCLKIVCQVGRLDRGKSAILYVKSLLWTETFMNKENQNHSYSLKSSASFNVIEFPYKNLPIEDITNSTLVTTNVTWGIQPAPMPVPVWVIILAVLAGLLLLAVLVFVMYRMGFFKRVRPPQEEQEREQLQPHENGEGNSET
T1 sequence (P05106 27-788, form in doubt, chain 2 of 2): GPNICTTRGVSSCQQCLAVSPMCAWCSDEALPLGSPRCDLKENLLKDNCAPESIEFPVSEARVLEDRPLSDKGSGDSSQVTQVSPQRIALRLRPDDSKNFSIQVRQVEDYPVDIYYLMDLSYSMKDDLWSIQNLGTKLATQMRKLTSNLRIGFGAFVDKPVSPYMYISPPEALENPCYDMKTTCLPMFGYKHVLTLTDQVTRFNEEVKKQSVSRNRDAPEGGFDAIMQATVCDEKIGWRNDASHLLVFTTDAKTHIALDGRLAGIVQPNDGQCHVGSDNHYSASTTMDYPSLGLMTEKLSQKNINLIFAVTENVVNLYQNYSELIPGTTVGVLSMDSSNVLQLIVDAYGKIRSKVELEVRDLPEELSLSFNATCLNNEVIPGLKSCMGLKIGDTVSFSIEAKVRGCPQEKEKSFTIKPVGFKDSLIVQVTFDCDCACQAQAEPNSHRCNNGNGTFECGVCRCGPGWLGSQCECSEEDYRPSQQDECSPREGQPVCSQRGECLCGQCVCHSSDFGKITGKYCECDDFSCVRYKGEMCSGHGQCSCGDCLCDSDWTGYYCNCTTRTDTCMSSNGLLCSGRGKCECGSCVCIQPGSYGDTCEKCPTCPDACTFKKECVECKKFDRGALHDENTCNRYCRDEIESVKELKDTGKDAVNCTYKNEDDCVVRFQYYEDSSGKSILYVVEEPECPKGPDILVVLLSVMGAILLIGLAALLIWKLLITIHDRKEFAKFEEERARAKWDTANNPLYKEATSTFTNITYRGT
Method: Method: 1 μg ml⁻¹ biotin-ligand is incubated with 1 μg ml⁻¹ coated receptor in the presence of serially diluted peptides. After 3 h at 30° C. bound ligand was measures by anti-biotin—alkaline phosphatase detection.

[2] = biological target: T2, recombinant human integrin αvβ3 (human, UniProt P06756 31-992; P05106 27-718); assay: isolated integrin binding assay: adsorbed recombinant human αvβ3, competitor ligand biotinylated human plasma vitronectin
T2 construct: also called recombinant human αvβ3 integrin; avβ3
T2 sequence (P06756 31-992, chain 1 of 2): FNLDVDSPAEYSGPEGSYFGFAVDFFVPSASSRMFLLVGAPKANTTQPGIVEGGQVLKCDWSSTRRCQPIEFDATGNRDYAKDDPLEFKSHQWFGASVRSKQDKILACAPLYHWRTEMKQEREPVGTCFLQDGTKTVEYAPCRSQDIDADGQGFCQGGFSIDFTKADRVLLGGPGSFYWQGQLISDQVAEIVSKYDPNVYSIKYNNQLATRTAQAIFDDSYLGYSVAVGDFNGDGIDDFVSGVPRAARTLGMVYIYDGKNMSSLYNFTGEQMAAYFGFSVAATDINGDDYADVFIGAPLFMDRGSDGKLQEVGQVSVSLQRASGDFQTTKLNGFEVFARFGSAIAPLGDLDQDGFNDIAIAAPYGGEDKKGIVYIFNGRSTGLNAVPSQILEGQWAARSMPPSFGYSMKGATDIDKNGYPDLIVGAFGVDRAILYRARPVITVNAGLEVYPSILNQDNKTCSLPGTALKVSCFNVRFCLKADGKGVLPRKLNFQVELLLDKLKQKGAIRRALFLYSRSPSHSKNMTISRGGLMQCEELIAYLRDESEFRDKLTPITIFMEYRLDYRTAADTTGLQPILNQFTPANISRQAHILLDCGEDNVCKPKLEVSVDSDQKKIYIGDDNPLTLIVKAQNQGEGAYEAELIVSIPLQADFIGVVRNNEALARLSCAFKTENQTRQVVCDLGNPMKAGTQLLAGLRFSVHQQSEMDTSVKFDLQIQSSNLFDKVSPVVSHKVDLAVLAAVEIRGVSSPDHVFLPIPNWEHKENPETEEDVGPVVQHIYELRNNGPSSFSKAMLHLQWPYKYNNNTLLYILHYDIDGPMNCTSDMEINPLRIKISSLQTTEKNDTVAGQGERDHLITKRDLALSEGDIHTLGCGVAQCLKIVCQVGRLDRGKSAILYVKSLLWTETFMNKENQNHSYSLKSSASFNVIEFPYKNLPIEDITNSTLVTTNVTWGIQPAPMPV
T2 sequence (P05106 27-718, chain 2 of 2): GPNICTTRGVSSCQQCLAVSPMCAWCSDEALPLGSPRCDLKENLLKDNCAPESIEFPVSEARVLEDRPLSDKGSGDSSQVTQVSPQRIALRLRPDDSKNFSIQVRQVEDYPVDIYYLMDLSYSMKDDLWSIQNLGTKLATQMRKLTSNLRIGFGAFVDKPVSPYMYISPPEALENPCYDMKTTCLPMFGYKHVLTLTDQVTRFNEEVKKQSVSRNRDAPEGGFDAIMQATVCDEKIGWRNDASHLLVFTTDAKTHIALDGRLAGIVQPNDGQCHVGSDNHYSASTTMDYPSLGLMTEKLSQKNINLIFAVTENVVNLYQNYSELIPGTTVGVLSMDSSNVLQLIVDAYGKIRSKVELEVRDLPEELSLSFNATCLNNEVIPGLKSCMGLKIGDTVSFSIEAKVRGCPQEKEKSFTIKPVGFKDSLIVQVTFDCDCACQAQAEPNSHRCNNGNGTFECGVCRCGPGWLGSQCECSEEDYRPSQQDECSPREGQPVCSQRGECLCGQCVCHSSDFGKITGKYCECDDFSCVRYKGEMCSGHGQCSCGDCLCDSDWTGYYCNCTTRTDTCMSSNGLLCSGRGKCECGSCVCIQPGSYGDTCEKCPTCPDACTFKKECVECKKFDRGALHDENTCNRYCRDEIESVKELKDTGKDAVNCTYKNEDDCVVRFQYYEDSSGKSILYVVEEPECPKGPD
Method: After 3 hours at 37° C., bound ligand is detected using alkaline-phosphatase labelled anti-biotin MAbs (Sigma, St. Louis, Mo.).

[3] = biological target: T1, purified human integrin αvβ3 from term …; assay: solid-phase inhibition assay: immobilized placental αvβ3, competitor ligand vitronectin
[4] = biological target: T2, recombinant human integrin αvβ3; assay: ligand inhibition ELISA: immobilized recombinant human αvβ3, competitor ligand biotinylated human serum vitronectin

IC50 [1]: 2 nM | IC50 [2]: 2.1 nM
B1: Cyclo-(Arg-Gly-Asp-DPhe-Acha) (peptide)
peptide: cyclo(RGD[dF][Ac6c])
SMILES: N=C(N)NCCC[C@@H]1NC(=O)C2(CCCCC2)NC(=O)[C@@H](Cc2ccccc2)NC(=O)[C@H](CC(=O)O)NC(=O)CNC1=O
notes: X = non-natural residue Acha; also called CPPC 1; Cyclopeptide

IC50 [1]: 400 nM
Binder: RGDFG (head-to-tail cyclic (homodetic)) [Cyclo(Arg-Gly-Asp-Phe-Gly)]

IC50 [3]: 4 µM
B2: Cyclo-(Arg-Ala-Asp-DPhe-Val) (peptide)
peptide: cyclo(RAD[dF]V)
SMILES: CC(C)[C@@H]1NC(=O)[C@@H](Cc2ccccc2)NC(=O)[C@H](CC(=O)O)NC(=O)[C@H](C)NC(=O)[C@H](CCCNC(=N)N)NC1=O
notes: also called cyclo(RADfV)

IC50 [1]: 8 nM
B3: Cyclo-(Arg-Gly-Asp-Phe-Nhdg) (peptide)
peptide: cyclo(RGDF[Nhdg])
SMILES: CCCCCCCCCCCCCCCCN1CC(=O)N[C@@H](CCCNC(=N)N)C(=O)NCC(=O)N[C@@H](CC(=O)O)C(=O)N[C@@H](Cc2ccccc2)C1=O
notes: Phe at 4 is printed without D; residue 5 is glycine carrying an N-hexadecyl group

IC50 [2]: 120 nM
B4: Gly-Arg-Gly-Asp-Ser-Pro-Lys-OH (peptide)
peptide: GRGDSPK-OH
notes: Linear peptide with free C-terminus; also called GRGDSPK peptide

IC50 [1]: 9 nM
Binder: cyclo(RGD[dF][Ac5c]) (X = non-natural residue Acpa) [Cyclo-(Arg-Gly-Asp-DPhe-Acpa)]

IC50 [1]: 20 nM
Binder: cyclo(RGD[dF][Aib′]) (X = non-natural residue Aib) [Cyclo-(Arg-Gly-Asp-DPhe-Aib)]

IC50 [1]: 170 nM
Binder: cyclo(RGD[dF]X) (not fully specified (residue 5); printed as Cyclo-(Arg-Gly-Asp-DPhe-hPro), X = non-natural residue hPro) [Cyclo-(Arg-Gly-Asp-DPhe-hPro)]

IC50 [4]: 24 nM
B5: Cyclo-(Arg-Gly-Asp-DPhe-(NMe)Ala) (peptide)
peptide: cyclo(RGD[dF][NMeA])
SMILES: C[C@H]1C(=O)N[C@@H](CCCNC(=N)N)C(=O)NCC(=O)N[C@@H](CC(=O)O)C(=O)N[C@H](Cc2ccccc2)C(=O)N1C
